Results: patent US20260226154A1 (CEPHALON, published 2026)
Numbering of substitutions follows the chain as printed. In names and notes the source's numbering stands. One block for each binder: values may come before it.

How the values were obtained:
[1] = target: T1, PACAP38 (human, not fully specified); assay: cell-based or functional assay
T1 peptide: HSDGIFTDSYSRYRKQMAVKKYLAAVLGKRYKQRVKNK

[2] = target: T1, PACAP38; assay: SPR (Biacore), 37 C, antibody captured via anti-human Fc, peptide analyte
Description: (§1) In brief, antibody and peptide interaction was determined on a Biacore S200 (GE Healthcare) by method previously described (Andreu and Gomes 2002). An anti-Human IgG Fc capture antibody was immobilized on a CM5 biosensor chip via standard amine coupling. Anti-PACAP antibodies were injected and captured to 200 to 400 response units (RU),). PACAP38, PACAP27 and VIP were diluted in HBS-EP+ buffer containing 0.1% w/v BSA (Bovostar, catalog number BSAS1.0) and 0.15 M NaCl (Sigma-Aldrich catalog number S7653), pH 7.4. Binding kinetics of antibodies were determined by injection of two-fold serial dilutions of PACAPs (12 nm to 0 nM) and VIP (1200 nM to 0 nM) in running buffer at 37° C. with a flow rate of 40 μL/min for 2 min followed by a dissociation for 10 minutes. For subsequent cycles, the chip was regenerated using 0.85% phosphoric acid. Data was analysed with the Biacore S200 Evaluation Software (ver 1.0). Association rate (kₐ) and dissociation rate (kd) constants were determined using a simple one-to-one Langmuir binding model and used to calculate the equilibrium dissociation constant (KD).

[3] = target: T1, PACAP38; assay: cell-based or functional assay
[4] = target: T1, PACAP38; assay: cell-based or functional assay
[5] = target: T2, VIP (human); assay: cell-based or functional assay
T2 peptide: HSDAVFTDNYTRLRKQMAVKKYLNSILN

[6] = target: T3, PACAP27 (human, not fully specified); assay: SPR (Biacore), 37 C, captured antibody; target PACAP27
T3 peptide: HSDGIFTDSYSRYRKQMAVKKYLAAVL
Description: as §1
(§2) The selectivity of antibody 890C was assessed by comparing the inhibition of PACAP38-signalling to inhibition of VIP-signalling in a cyclic AMP (cAMP) measuring cell-based functional assay.

[7] = target: Glucagon; assay: SPR (Biacore) at 37 C, captured antibody, 37.5 nM peptide, relative response after 15 sec dissociation
Chain of Glucagon (peptide, as listed by the source): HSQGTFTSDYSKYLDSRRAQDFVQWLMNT
Description: (§3) The anti-PACAP antibodies, e.g., 890C, were tested against related peptides in the Secretin Glucagon family (Table 19) to determine the presence and extent of any off-target binding. Nine bioactive peptides in the glucagon superfamily are: PACAP, VIP, glucagon, Glucagon-Like Peptides (GLP-1, GLP-2), Growth Hormone Releasing Factor (GRF or GHRF), Peptide Histidine Methionine (PHM), secretin, and Gastric inhibitory polypeptide (GIP). Following capture of antibodies as described in example 4, the antibody and the peptide interaction was measured by injection of 37.5 nM of each peptide diluted in buffer at 37° C. with a flow rate of […] for 2 min followed by a dissociation phase of 4-5 min. Samples were injected in a multi-cycle manner over freshly captured anti-PACAP antibody, by regenerating the capture surfaces with two injections of 0.85% phosphoric acid at a flow rate of 30 μL/min.
as §2

[8] = target: T4, Secretin; assay: as above
T4 peptide: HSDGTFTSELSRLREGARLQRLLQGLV
Description: as §3, §2

[9] = target: T5, GIP; assay: as above
T5 peptide: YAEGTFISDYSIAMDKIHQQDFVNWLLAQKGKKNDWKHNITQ
Description: as §3, §2

[10] = target: T6, GLP-2; assay: as above
T6 construct: also called Glucagon-Like Peptide 2
T6 peptide: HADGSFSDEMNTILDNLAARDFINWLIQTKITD
Description: as §3, §2

[11] = target: T7, GRF; assay: as above
T7 construct: also called GHRF; Growth Hormone Releasing Factor
T7 peptide: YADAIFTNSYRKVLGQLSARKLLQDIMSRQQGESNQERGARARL
Description: as §3, §2

[12] = target: T8, PHM; assay: as above
T8 construct: also called Peptide Histidine Methionine
T8 peptide: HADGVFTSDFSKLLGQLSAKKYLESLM
Description: as §3, §2

[13] = target: T9, GLP-1; assay: as above
T9 construct: also called Glucagon-Like Peptide 1
T9 peptide: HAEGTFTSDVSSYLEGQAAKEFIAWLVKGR
Description: as §3, §2

[14] = target: T2, VIP; assay: SPR (Biacore), 37 C, captured antibody; target VIP
Description: as §1, §2

[15] = target: T1, PACAP38; assay: SPR (Biacore S200) off-rate ranking, antibody captured from supernatant, single injection of 33.3 nM PACAP38
Description: as §1, with “Binding kinetics of antibodies were determined by injection of two-fold serial dilutions of PACAPs (12 nm to 0 nM) and VIP (1200 nM to 0 nM) in running buffer at 37° C. with a flow rate of 40 μL/min for 2 min followed by a dissociation for 10 minutes.” left out

[16] = target: T1, PACAP38; assay: SPR (Biacore), 37 C, captured antibody; target PACAP38
Description: as §1, §2

[17] = target: T1, PACAP38; assay: cell-based or functional assay
[18] = target: T2, VIP; assay: SPR (Biacore S200), 37 C, captured antibody, steady state affinity
Description: as §1
(§4) Due to very fast on-rate and off-rate with VIP, binding affinity at steady state was used.

[19] = target: T3, PACAP27; assay: SPR (Biacore S200), 37 C, captured antibody, peptide dilution series, 1:1 Langmuir fit
Description: as §1, §4

[20] = target: T1, PACAP38; assay: as above
Description: as §1, §4

PACAP-38 IC50 [1]: 1.3 nM
Kd [2]: 0.0866 nM
koff [2]: 0.00584 s⁻¹
kon [2]: 6.75e+07 M⁻¹ s⁻¹
B3: 919A (antibody, V domains shown)
VH: EVQLVQSGAEVKKPGSSVKVSCKASGGTFSDSYMHWVRQAPGQGLEWMGLIYPIFADTRYAQKFQGRVTITADESTSTAYMELSSLRSEDTAVYYCAIDYDGSFAYWGQGTLVTVSS
VL: DIVMTQSPDSLAVSLGERATINCKSSQSLLDSDGKTYLNWLQQKPGQPPKRLIYLVSTRESGVPDRFSGSGSGTDFTLTISSLQAEDVAVYYCWQGTHFPLTFGGGTKVEIK
notes: Humanized anti-PACAP variant

PACAP-38 IC50 [1]: 0.83 nM
Kd [2]: 0.0228 nM
koff [2]: 0.00118 s⁻¹
kon [2]: 5.17e+07 M⁻¹ s⁻¹
IC50 (nM), PACAP-induced cAMP accumulation, CHO-K1 cells, cAMP-Glo [3]: 0.83 nM
Kd [15]: 0.0228 nM
koff [15]: 0.00118 s⁻¹
kon [15]: 5.17e+07 M⁻¹ s⁻¹
B5: 609C (antibody, V domains shown)
VH: B3 VH with S32L, Y100Q
VL: DIVMTQSPDSLAVSLGERATINCKSSQSLLDADGKTYLNWLQQKPGQPPKRLIYWASTRESGVPDRFSGSGSGTDFTLTISSLQAEDVAVYYCWQGTWFDLTFGGGTKVEIKR

PACAP-38 IC50 [1]: 0.4 nM
Kd [2]: 0.0376 nM
koff [2]: 0.000789 s⁻¹
kon [2]: 2.1e+07 M⁻¹ s⁻¹
IC50 (nM), PACAP-induced cAMP accumulation, CHO-K1 cells, cAMP-Glo [3]: 0.4 nM
Kd [15]: 0.0376 nM
koff [15]: 0.000789 s⁻¹
kon [15]: 2.1e+07 M⁻¹ s⁻¹
B7: 627C (antibody, V domains shown)
VH: B3 VH with S32V, Y100Q
VL: B5 VL with A32S

Continued, binder first:

B1: 917B (antibody, V domains shown)
VH: B3 VH with Y100Q
VL: B3 VL with H98W, P100D
notes: Humanized anti-PACAP variant
PACAP-38 IC50 [1]: 0.19 nM
Kd [2]: 0.00969 nM
koff [2]: 0.000122 s⁻¹
kon [2]: 1.26e+07 M⁻¹ s⁻¹
IC50 (nM), PACAP-induced cAMP accumulation, CHO-K1 cells, cAMP-Glo [3]: 0.19 nM

B2: 890C (antibody, human IgG2, kappa, V domains shown)
VH: B3 VH with S32V, Y100Q
VL: B5 VL
notes: Full chains as named '890C heavy chain' / '890C light chain' (IgG2DASS, kappa); also called anti-PACAP antibody 890C
IC50 (read off the curve), PACAP-induced cAMP production, CHO-K1 cells expressing PAC1 [4]: ~0.4 nM
fold shift between the PACAP/PAC1 and the VIP/VPAC1 inhibition curves (selectivity for PACAP over VIP) [4]: 1400 fold
IC50 (read off the curve), VIP-induced cAMP production, CHO-K1 cells expressing VPAC1 [5]: ~600 nM
Kd [6]: 0.218 nM
binding result [7]: no binding (tested: 37.5 nM)
binding result [8]: no binding (tested: 37.5 nM)
binding result [9]: no binding (tested: 37.5 nM)
binding result [10]: no binding (tested: 37.5 nM)
binding result [11]: no binding (tested: 37.5 nM)
binding result [12]: no binding (tested: 37.5 nM)
binding result [13]: no binding (tested: 37.5 nM)
PACAP-38 IC50 [1]: 0.32 nM
Kd [2]: 0.0284 nM
koff [2]: 0.000671 s⁻¹
kon [2]: 2.36e+07 M⁻¹ s⁻¹
Kd [14]: 390 nM
IC50 (nM), PACAP-induced cAMP accumulation, CHO-K1 cells, cAMP-Glo [3]: 0.32 nM
Kd [15]: 0.0284 nM
koff [15]: 0.000671 s⁻¹
kon [15]: 2.36e+07 M⁻¹ s⁻¹
Kd [16]: 0.054 nM
selectivity, inhibition of PACAP38-induced cAMP production (CHO-K1, PAC1 receptor) versus VIP-induced cAMP production (CHO-K1, VPAC1 receptor) [17]: > 1000 fold

B4: 604C (antibody, V domains shown)
VH: B3 VH with Y100Q
VL: B3 VL with L55W, V56A, H98W, P100D
PACAP-38 IC50 [1]: 0.16 nM
Kd [2]: 0.0197 nM
koff [2]: 0.000319 s⁻¹
kon [2]: 1.62e+07 M⁻¹ s⁻¹
Kd [15]: 0.0197 nM
koff [15]: 0.000319 s⁻¹
kon [15]: 1.62e+07 M⁻¹ s⁻¹

B6: 605C (antibody, V domains shown)
VH: B3 VH with Y100Q
VL: B3 VL with S32A, L55W, V56A, H98W, P100D
Kd [18]: 225 nM
PACAP-38 IC50 [1]: 0.15 nM
Kd [2]: 0.017 nM
koff [2]: 0.000566 s⁻¹
kon [2]: 3.33e+07 M⁻¹ s⁻¹
Kd [19]: 0.154 nM
koff [19]: 0.00101 s⁻¹
kon [19]: 6.58e+06 M⁻¹ s⁻¹
Kd [20]: 0.0328 nM
koff [20]: 0.000565 s⁻¹
kon [20]: 1.72e+07 M⁻¹ s⁻¹
Kd [15]: 0.017 nM
koff [15]: 0.000566 s⁻¹
kon [15]: 3.33e+07 M⁻¹ s⁻¹

B8: 519C (antibody, V domains shown)
VH: B3 VH with S32L, Y100Q
VL: B3 VL with H98W, P100D
notes: LC S(27E), G29, L50, V51, K53T, L54R, D55E, H93W, P95D
PACAP-38 IC50 [1]: 0.27 nM
Kd [2]: 0.0218 nM
koff [2]: 0.000483 s⁻¹
kon [2]: 2.22e+07 M⁻¹ s⁻¹

B9: 608C (antibody, V domains shown)
VH: B3 VH with S32L, Y100Q
VL: B5 VL with A32S
PACAP-38 IC50 [1]: 0.7 nM
Kd [2]: 0.0284 nM
koff [2]: 0.00204 s⁻¹
kon [2]: 7.19e+07 M⁻¹ s⁻¹
IC50 (nM), PACAP-induced cAMP accumulation, CHO-K1 cells, cAMP-Glo [3]: 0.7 nM
Kd [15]: 0.0284 nM
koff [15]: 0.00204 s⁻¹
kon [15]: 7.19e+07 M⁻¹ s⁻¹

B10: 524C (antibody, V domains shown)
VH: B3 VH with T58Q, Y100Q, G102A
VL: B3 VL with H98W, P100D
notes: as for B8
PACAP-38 IC50 [1]: 0.36 nM
Kd [2]: 0.035 nM
koff [2]: 0.000546 s⁻¹
kon [2]: 1.56e+07 M⁻¹ s⁻¹
